According to patent US20090012494A1, “I[…] OF BIOLOGICAL AGENTS” (NanoPass Technologies Ltd., priority 2006, published 2009):

Molecular target: T1, Insulin from Porcine Pancreas (antigen) (Sus scrofa, UniProt P01315)
T1 construct: Insulin from Porcine Pancreas; purchased SIGMA 1-5523; host or cells: porcine pancreas (tissue-derived)
Assay: Guinea pig ID immunization with porcine insulin; antigen/antibody complex by Dextran coated Charcoal Radioimmunoassay
Type: in vivo, Dunkin Hartley male Guinea Pigs
Description: Various animals (e.g., Guinea pigs) are used in industry to produce primary and secondary antibodies for biological and clinical research, based on immunoassay methods (e.g. ELISA). In some of these animals the specific antigen is injected intradermally, in order to achieve a larger and/or faster immune response (antibodies production). After the primary immunization, several immunization boosters are given at different time intervals, and blood is collected. The antibodies production level is measured by measuring the antigen/antibody complex formation levels, in different dilution levels, using conventional immunoassay methods. Usually, a fixed cut-off value (percentage of antigen/antibodies complex formation in a specific dilution level) must be achieved.
18 Dunkin Hartley male Guinea Pigs were divided into two groups. The animals were anesthetized with a 0.2 ml of Ketamine/Xylazine mixture (1:1 ratio) I.M. Anesthetizing was followed by 0.1 ml I.D. immunization with Insulin from Porcine Pancreas (SIGMA, Cat. No. 1-5523) in a Freund's adjuvant emulsion mixture (SIGMA), injected in 4 sites on the skin. […] After plasma separation, antigen/antibody complex levels were detected in the 2 ml serum sample, using a Dextran coated Charocal Radioimmunoassay method.

T1 sequence (P01315 25-54 limits assumed): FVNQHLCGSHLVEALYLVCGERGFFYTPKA
T1 sequence (P01315 88-108 limits assumed): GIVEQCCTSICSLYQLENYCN

Insulin from Porcine Pancreas: Insulin from Porcine Pancreas (SIGMA) in a Freund's adjuvant emulsion mixture, used as immunizing antigen
production time needed to achieve the per-protocol cut-off value, microneedle versus regular injection (cut-off 50% Antigen/Antibody complex formation at dilution 1:80 K, microneedle vs regular 25 g needle): 3 times shorter | Antigen/Antibody complex formation, Ka [L/mol] values, microneedle versus regular injection (dilution level 1:80K, ID microneedles (Nano) vs regular 25 g hypodermic needle, in Freund's adjuvant): more than 3 times higher
